Substrate in this data set: CC(C)=C[C@@H]1[C@@H](C(=O)SCCNC(=O)CCNC(=O)[C@H](O)C(C)(C)COP(=O)(O)OP(=O)(O)OC[C@H]2O[C@@H](n3cnc4c(N)ncnc43)[C@H](O)[C@@H]2OP(=O)(O)O)C1(C)C
The experiment in a line: purified protein. The note with it: 1 mM (S)-pyrethrolone, 50 mM Tris-HCl pH 7.5, 25 °C, 10 min.

B1: TcGLIP (Tanacetum cinerariifolium) (protein)
chain: SQQAAALFIFGDSVFDPGNNNHINTHVNFKANFWPYGQSYFSSPTGRFSDGRIIPDFIAEYASLPIIPAYLEPNNDFTHGANFASAGAGALIASHAGLAVGLQTQLRYFGDLVDHYRQNLGDIKSRQLLSDAVYLFSCGGNDYQSPYYPYTQEQYVDIVIGNMTNVIKGIYEKGGRKFGVVNVPLIGCWPGMRAKQPGNTCNTEVDELTRLHNQAFAKRLEQLEKQLEGFVYAKFDLSTAILNRMKNPSKYGFKEGESACCGSGPFGGNYDCGRIKEFGLCDNATEYFFFDPFHPNELASRQFAEMFWDGDSMVTQPYNLKALFEGKPSTKYLPNDEL
Turning to B1, the Km was determined as 520 ± 95 µM, the Vmax was 0.14 µmol/min/mg and the Vmax/Km amounted to 269 µL/min/mg.

The values above are taken from publication PMC9306000.
